± gives the standard deviation.
Test: protein stability index of a GFP-peptide fusion (GPS, HEK-293T) (PSI 1-6); higher = more stable
Details: c terminus: a fixed tail appended
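Also: 24-mer peptide tiles fused after GFP, lentivirally expressed, FACS-sorted into six equal bins by GFP/DsRed ratio, decoded by Illumina sequencing, PSI is the read-weighted mean bin number.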

Row | Sequence | protein stability index (treatment: DMSO) | protein stability index (treatment: MLN4924 1 uM, 8 h)
1 | CHLCNYACRRRDALTGHLRTHSVI [IKZF1] | 3.06 ± 0.26 | 3.15 ± 0.4
2 | CKKAFREGSRKSSRVKGSAPEIDP [KMT2E] | 4.46 ± 0.15 | 4.48 ± 0.15
3 | CPAELFTNTRSDLDVFGRGDNISD [LUC7L3] | 4.38 ± 0.26 | 4.65 ± 0.19
4 | CRGIPRGPVRPAIPPPLSSVYAWG [NEK8] | 2.3 ± 0.36 | 2.35 ± 0.43
5 | CRLTHIPAYKVSGDKNEEQVLNAI [ZER1] | 3.5 ± 0.42 | 3.42 ± 0.3
6 | CSPSQMDLLCAQLQLPQLSDLGLL [FANCE] | 2.15 ± 0.42 | 2.13 ± 0.44
7 | CSSPSVVASLPLDQSDEGSSSQKE [MAGEA10] | 5.36 ± 0.74 | 5.49 ± 0.1
8 | CYAAMKKKIYAMGGGSYGKLFESV [GAN] | 2.16 ± 0.39 | 2.23 ± 0.45
9 | CYKGHKEIAQYLLEKGADVNRKSV [FEM1C] | 3.1 ± 0.14 | 3.38 ± 0.18
10 | DAASLRRQIIKLNRRLQLLEEENK [MFF] | 3.35 ± 0.19 | 3.68 ± 0.55
11 | DCLQLIADSETPTIQKGSYTFVPW [TNFSF13B] | 2.19 ± 0.28 | 2.2 ± 0.18
12 | DDGRLLEYDTVTREVKVLLDQLRF [APMAP] | 2.62 ± 0.2 | 3.05 ± 0.38
13 | DEEVSGSSKTITAEIPDGPPVVAH [C18orf25] | 5.35 ± 0.25 | 5.41 ± 0.22
14 | DFGSNCRFSHMSERDLQELSIQVE [ZMAT5] | 3.05 ± 0.49 | 2.91 ± 0.28
15 | DGAWCAGRNDLQQWIEVDARRLTR [CPXM2] | 3.48 ± 0.35 | 3.95 ± 0.52
16 | DGLLGDNQIMPKTGFLIIILAIIA [MAGEA6] | 2.86 ± 0.65 | 2.12 ± 0.46
17 | DGRFEKRQGNPSWKKQQKCDECGK [ZNF396] | 5.03 ± 0.2 | 5.2 ± 0.11
18 | DIKNPEITTNRFYGPQVNNISHTK [WASL] | 3.19 ± 0.26 | 3.48 ± 0.41
19 | DIYILPSDNSGQVSPPESPTVTTS [BCL2L13] | 4.58 ± 0.27 | 4.5 ± 0.15
20 | DKDKSDDRMARPSGRSGHNTRGTG [CSNK1G3] | 5.6 ± 0.29 | 5.43 ± 0.52
21 | DKLKIDLLPDGRHAVVEVEDVPLA [TAF7L] | 4.61 ± 0.15 | 4.8 ± 0.24
22 | DKPLPPPPPGSLSRTQEPSLGKQK [SOAT2] | 5.27 ± 0.28 | 5.41 ± 0.21
23 | DLDLIQSTPFKPLALKTPPRVLTL [MFF] | 2.31 ± 0.3 | 2.36 ± 0.34

Row | Sequence | protein stability index (treatment: DMSO) | protein stability index (treatment: MLN4924 1 uM, 8 h)
24 | DLKQALPCVAESPTVHVEVHQRGS [TRIP13] | 4.51 ± 0.31 | 4.57 ± 0.11
25 | DLLHNVSQNIAAETRAEDPPWFEG [DFFB] | 3.753 ± 0.011 | 3.85 ± 0.13
26 | DLVFVIDGSKSLGEENFEVVKQFV [MATN2] | 2.38 ± 0.35 | 2.44 ± 0.49
27 | DMKPITVGGKIVGSLCAIAGVLTI [KCNA4] | 2.88 ± 0.57 | 3.11 ± 0.32
28 | DNEDYPLFRELWRYHFATGVWHQM [KLHDC10] | 2 ± 0.76 | 2.03 ± 0.46
29 | DNLLLDAKGHVKLSDFGLCTGLKK [STK38L] | 3.12 ± 0.1 | 3.38 ± 0.44
30 | DNRCKLFDSPSLCSSSTRSVLKRP [CDC25A] | 3.48 ± 0.2 | 3.64 ± 0.28
31 | DNSPTSNSLEGGTDATAFWWGEWT [ADAMTSL2] | 3.62 ± 0.35 | –
32 | DPQSGELPSERWNPTQNVRTILLS [CDC34] | 3.31 ± 0.35 | 3.62 ± 0.43
33 | DQVSACIPVFRLARRRKKILFYCH [ALG2] | 2.22 ± 0.47 | 2.24 ± 0.075
34 | DRDMFFKICESLNVPVDDSLVKEL [EFHC1] | 3.22 ± 0.29 | 3.3 ± 0.18
35 | DRLEEQLPWLSLRALKFRERDALE [DNAAF3] | 3.4 ± 0.24 | 3.42 ± 0.19
36 | DRYSEGIKHVLQTFGPIPEFSRAT [CRYL1] | 3.06 ± 0.58 | 3.36 ± 0.3
37 | DSFLVALDMDDGTLSFIVDGQYMG [SPSB1] | 2.64 ± 0.63 | 2.74 ± 0.41
38 | DSGQNAWLSYRLLKASEPGLFAVG [PCDHGA10] | 2.14 ± 0.09 | 2.13 ± 0.063
39 | DSMPQDLSEALKEATKEVHTQAEN [HMOX1] | 5.39 ± 0.26 | 5.51 ± 0.19
40 | DSSSSCSDHCITSSDMMDSSSFSN [VDR] | 4.94 ± 0.28 | 5.01 ± 0.27
41 | DTERLDDFHLSIHSDMAAIVKAMA [DVL3] | 2.36 ± 0.2 | 2.49 ± 0.25
42 | DTVTEVTARMEMLIEELYAFMPAR [CBY2] | 2.38 ± 0.25 | 2.47 ± 0.48
43 | DVARQLGKNNEFSRLVAGEYLSFF [PSD2] | 2.26 ± 0.16 | 2.27 ± 0.44
44 | DVCISILHPPVDDPQSGELPSERW [CDC34] | 3.9 ± 0.28 | 4.01 ± 0.24
45 | DVHDDVRLLSDATVEKDESHAGKV [FAM50A] | 5.52 ± 0.26 | 5.43 ± 0.23
46 | DVPDLQSVCSCTCYRSQDYGGRSV [KCNK9] | 2.5 ± 0.36 | 2.81 ± 0.67

Row | Sequence | protein stability index (treatment: DMSO) | protein stability index (treatment: MLN4924 1 uM, 8 h)
47 | DVTADSKVLEALKLKGAEVTYMNM [PLD5] | 3.57 ± 0.21 | 3.44 ± 0.29
48 | DYAHGFGNISGEFWLGNEALHSLT [TNXB] | 2.43 ± 0.73 | 2.82 ± 0.57
49 | DYELEDETRPAKRITITESNMKSR [WEE1] | 4.74 ± 0.35 | 5.16 ± 0.29
50 | DYKDRSVFGVPLTVNVQRTGQPLP [DLC1] | 3.62 ± 0.069 | 3.52 ± 0.17
51 | DYSFLSLGVYSALREIAFTRQLHE [ATE1] | 2.99 ± 1.3 | 2.68 ± 0.94
52 | EALLDRESENASLREKLRLREAEI [LRRC45] | 4.77 ± 0.26 | 4.89 ± 0.083
53 | ECHIVVLTDDDVVDWDEEYPPQMG [BTBD10] | 3.34 ± 0.29 | 3.73 ± 0.42
54 | EDAHLTQYKKEPVTTRQVRTIVEE [KRT17] | 5.01 ± 0.37 | 5.01 ± 0.19
55 | EDGEKAAREVKLLLLGAGESGKST [GNAI1] | 4.78 ± 0.25 | 5.28 ± 0.19
56 | EDLLAKEKDNSRRMLTDKEREMAE [LMNB1] | 5.6 ± 0.31 | 5.65 ± 0.28
57 | EDSESLRIKEVEHMTRHLEESEKA [LRRC45] | 5.5 ± 0.23 | 5.51 ± 0.2
58 | EDSVFEERPERRSGPPASYCAKLC [C8orf76] | 4.44 ± 0.29 | 4.6 ± 0.07
59 | EEDLQSQSETQGLEGAQAPLAVEE [MAGEA10] | 5.73 ± 0.14 | 5.75 ± 0.089
60 | EEDNELNLPNLAAAYSSILSSLGE [GCH1] | 3.68 ± 0.31 | 3.73 ± 0.16
61 | EEEEERWEWSPAGLQSYQQALLRI [SERTAD3] | 3.46 ± 0.29 | 3.43 ± 0.17
62 | EEIVFNLTNNVDLDNTKKKMEIYQ [MNAT1] | 4.05 ± 0.39 | 4.02 ± 0.35
63 | EEPELVFTLGDCDVIQALDLSVPL [FKBP8] | 3.66 ± 0.28 | 3.48 ± 0.41
64 | EETIASLQMEVCRLKKEEEDRIVT [CEP70] | 4.65 ± 0.072 | 4.8 ± 0.32
65 | EEVDTGAVNLIESGACGAFVHGLE [INTS4] | 4.34 ± 0.39 | 4.85 ± 0.46
66 | EFIMPDSAVVGDVLVLTKPLGTQV [SEPHS2] | 2.3 ± 0.31 | 2.54 ± 0.32
67 | EFLRVQEERILHQQVKCIITEEKV [VPS39] | 3.08 ± 0.26 | 2.92 ± 0.3
68 | EGCELPDLPSSLLLPEDMALRNLP [SMG5] | 4.4 ± 0.1 | 4.49 ± 0.15
69 | EGSADTEDRKLPAPGADVKVHRAR [EHMT1] | 5.27 ± 0.44 | 5.41 ± 0.17

Row | Sequence | protein stability index (treatment: DMSO) | protein stability index (treatment: MLN4924 1 uM, 8 h)
70 | EGTLGYAIGGTYLGPAFRGLKGRT [SPSB2] | 3.14 ± 0.1 | 3.06 ± 0.32
71 | EIIKVTEQLIEAINNGDFEAYTKI [CAMK2D] | 2.47 ± 0.12 | 2.63 ± 0.29
72 | EKAVANFDRTEWVQIRRLEAAGES [ZC2HC1C] | 4.49 ± 0.12 | 4.48 ± 0.26
73 | EKDNSRRMLTDKEREMAEIRDQMQ [LMNB1] | 5.3 ± 0.12 | 5.32 ± 0.13
74 | EKGRALQIRDWRGGRLENQKPRGL [ZSWIM9] | 4 ± 0.34 | 4.2 ± 0.35
75 | EKSHQVLAQLLDTLLAIGTKLPEN [INTS4] | 3.14 ± 0.82 | 3.2 ± 0.86
76 | EKYKTQIDHYVGIARDQTKSIVEK [RTN3] | 4.07 ± 0.2 | 4.15 ± 0.31
77 | ELAFAEDLVLDEEGARAAGLGELG [ESRRA] | 5.24 ± 0.2 | 5.19 ± 0.27
78 | ELALFQMSVLWLEHDRETRMQYAP [KLHL14] | 2.44 ± 0.58 | 2.46 ± 0.34
79 | ELEMIGFIENNVSKLSLLLNDISR [TRIP13] | 2.2 ± 0.31 | 2.63 ± 0.41
80 | ELLSAPPPDLGAQRRHGWNPKDCS [SPSB2] | 3.72 ± 0.14 | 3.48 ± 0.25
81 | ELPLLTPCSKAVMSQALKATFSGF [ETS2] | 2.62 ± 0.28 | 2.06 ± 0.65
82 | ENEEMEQPMQNGEEDRPLGGGEGH [BEX3] | 5.42 ± 0.15 | 5.41 ± 0.2
83 | ENILSFMSYDEISQLRLVCKRMDL [FBXO28] | 2.32 ± 0.21 | 2.35 ± 0.28
84 | ENNMLQPETHIFTAPEEVPKVSDQ [DMRTC1] | 5.57 ± 0.18 | 5.56 ± 0.21
85 | ENWVCLSCYQVYCGRYINGHMLQH [HDAC6] | 2.33 ± 0.76 | 2.54 ± 0.46
86 | EPDALDDSLTSLQWLQEFSILNAK [FOXJ1] | 3.75 ± 0.21 | 3.65 ± 0.11
87 | EPGYIDSEIGTSDQIVPEYQEDSD [TRIB1] | 5.69 ± 0.29 | 5.62 ± 0.19
88 | EPMRDQVARTHLTEDTPKVNADIE [NSDHL] | 5.32 ± 0.34 | 5.56 ± 0.075
89 | EQASAFQEQEIDGKSLLLMTRNDV [SAMD13] | 4.74 ± 0.12 | 4.78 ± 0.14
90 | EQIRFVMKAHSFVRENVPRVLNSA [SOAT1] | 2.58 ± 0.46 | 2.48 ± 0.41
